The values below come from patent US20230235058A1 (OXFORD UNIVERSITY INNOVATION, published 2023).

The target of assay [1] is T1, soluble cynomolgus macaque BTLA extracellular domain (BTLA K31-R151) (cynomolgus macaque).
T1 construct: also called cynomolgus BTLA; cyno BTLA
T1 chain: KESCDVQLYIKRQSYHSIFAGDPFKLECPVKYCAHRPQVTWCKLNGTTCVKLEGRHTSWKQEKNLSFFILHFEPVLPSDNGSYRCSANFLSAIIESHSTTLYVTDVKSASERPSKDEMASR
The experiment in a line: SPR (Biacore T200), single cycle kinetics at 37 C, antibody captured on anti-mouse IgG, soluble BTLA extracellular domain as analyte. For orientation: Surface plasmon resonance follows binding to a sensor surface in real time, without labels.
Description: (§1) Mouse antibody capture kit (GE Healthcare) was used to coat a Series S CMS Sensor Chip (GE Healthcare) with polyclonal anti-mouse IgG. Anti-BTLA antibody was then captured onto the biosensor surface and a negative control antibody (clone Mopc21; Biolegend) captured in the reference channel. […] Association and dissociation rates were fitted using BiaEvaluation Software (GE Healthcare) after reference and blank subtractions, and dissociation constants were calculated (FIG. 1b).

For assay [2], the target named is T2, E92R (Mus musculus).
T2 construct: transmembrane and intracellular regions; also called BTLA E92R construct
Description: flow cytometry, GFP-positive transfected HEK-293T cells, fluorochrome-conjugated antibody at 10 ug/ml, Geo-mean relative to wild type. (In general: In flow cytometry, cells or beads pass a laser one at a time.)
Description: (§2) Constructs encoding the human extracellular region of BTLA with the transmembrane and intracellular regions of murine CD28 were cloned into the bi-cistronic mammalian expression vector pGFP2-n2 (BioSignal Packard Ltd), which also encodes GFP. […] Mock and no-transfection controls were included with each experiment. Cells were harvested at 48 hours and stained with fluorochrome-conjugated anti-BTLA antibody at 10 μg/ml, alongside a Live/Dead marker, in PBS, 0.05% azide, 2% FCS (FACS buffer) for 1 h at 4° C. Cells were washed, pelleted and resuspended in 200 μl FACS buffer before being analysed on a BD FACSCanto flow cytometer. […] For each mutant the Geo-mean of anti-BTLA antibody binding to transfected cells was expressed as a percentage of binding to the wild-type receptor (FIG. 3b). A panel of anti-BTLA antibodies was assessed and any mutation that eliminated binding of all antibodies was excluded from the analysis, on the assumption that such mutations lead to drastic changes in protein folding or expression rather than indicating an antibody epitope.

The target of assay [3] is T3, H68E (Mus musculus).
T3 construct: transmembrane and intracellular regions; also called BTLA H68E construct
Described as above.
Description: as §2

Assay [4] addresses T4, A64R (Mus musculus).
T4 construct: transmembrane and intracellular regions; also called BTLA A64R construct
Described as above.
Description: as §2

Assay [5] deals with T5, full length cynomolgus BTLA expressed on Jurkat cells (cynomolgus monkey, UniProt Q7Z6A9 31-289 (human entry)).
T5 construct: also called cynomolgus BTLA expressing cells
T5 chain: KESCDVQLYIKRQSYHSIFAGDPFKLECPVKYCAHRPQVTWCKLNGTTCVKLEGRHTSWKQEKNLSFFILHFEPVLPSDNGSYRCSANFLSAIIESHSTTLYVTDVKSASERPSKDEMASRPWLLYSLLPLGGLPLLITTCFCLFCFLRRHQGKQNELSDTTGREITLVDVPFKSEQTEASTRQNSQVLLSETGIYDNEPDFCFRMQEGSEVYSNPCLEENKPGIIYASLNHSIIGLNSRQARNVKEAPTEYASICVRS
The experiment in a line: flow cytometry, BTLA Jurkat cells.
Description: A lentiviral transfection system was used to express full length human or cynomolgus BTLA in a Jurkat T cell line. 1×10⁵ cells per well were plated in 96 well U-bottom plates. […] Secondary antibody was incubated for 30 minutes on ice, then cells were washed and resuspended in FACS buffer for analysis on a flow cytometer. The geometric mean fluorescent intensity of secondary antibody was plotted for each concentration and the EC50 for receptor binding calculated by non-linear curve fitting using GraphPad Prism software.
The ability of the BTLA agonist antibodies of the present invention to bind to human or cynomolgus BTLA expressed on the cell surface was assessed by flow cytometry. A lentiviral transfection system was used to express full length human or cynomolgus BTLA in a Jurkat T cell line. 1×10⁵ cells per well were plated in 96 well U-bottom plates.

Assay [6] concerns the target T6, chimeric BTLA of humanised-BTLA mice (human extracellular region, murine transmembrane and signaling … (human; mouse, UniProt Q7TSA3 184-306, limits assumed). The experiment in a line: cell-based or functional assay.
Assay [7] addresses T5, full length cynomolgus BTLA expressed …. Description: cell-based or functional assay.
Assay [8] deals with T1, soluble cynomolgus macaque BTLA …. Description: SPR 37C, mAb captured, BTLA ECD analyte.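 Note: Anti-BTLA mouse antibodies captured on a sensor chip via polyclonal anti-mouse IgG, isotype control antibody in reference channel, rates fitted after reference and blank subtraction to derive Kd.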
Description: as §1
Assay [9] addresses T6, chimeric BTLA of humanised-BTLA mice …. Description: cell-based or functional assay. This is another data set of the same source.
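Throughout, for binding as % of binding to wild-type BTLA: cells express mutant human BTLA ectodomain fused to murine CD28 transmembrane and cytoplasmic parts, stained 48 h after transfection for 1 h at 4 °C alongside a Live/Dead dye.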

T6 sequence (Q7TSA3 other isoform, or with tags, fused parts or gaps mutant limits assumed): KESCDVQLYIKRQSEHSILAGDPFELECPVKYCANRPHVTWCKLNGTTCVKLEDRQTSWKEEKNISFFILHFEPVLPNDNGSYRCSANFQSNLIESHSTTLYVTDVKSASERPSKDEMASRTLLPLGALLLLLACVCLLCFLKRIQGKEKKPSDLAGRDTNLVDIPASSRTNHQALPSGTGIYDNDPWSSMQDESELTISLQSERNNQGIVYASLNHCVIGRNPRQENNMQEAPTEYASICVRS

B1: 2.8.6 (antibody, V domains shown)
VH: QVQLKESGPGLVAPSQSLSITCTVSGFSLTTYGVHWVRQSPGKGLEWLGVMWPGGRTSYNPAPMSRLSISKDNSKSQVFLKMNSLQTDDTAMYYCVRGDYEYDYYAMDYWGQGTSVTVSS
VL: QIVLSQSPAILSASPGEKVTMTCRASSSVSYMHWYQQKPGSSPKPWIYATSNLASGVPARFSGSGSGTSYSLTISRMEAEDAATYYCHQWSSNPYTFGGGTKLEIK
notes: mouse IgG1k hybridoma antibody; also called clone 2.8.6
What is called koff is a measure of how fast the partners let go of each other. High values mean fast dissociation, low ones slow dissociation. The kon is the rate constant with which the complex forms. Lower therefore signals slower complex formation. A word on the EC50: it is the concentration that produces a half-maximal response. A lower EC50 goes with a more potent agent. What is called Kd is the free concentration of one partner at which half of the binding sites on the other are occupied at equilibrium, for simple one-to-one binding. High values mean weaker binding, low ones tighter binding. As for B1, in assay [1], the koff came to 0.00627 s⁻¹ and the kon came to 795000 M⁻¹ s⁻¹. Moreover, the “binding as % of binding to wild-type BTLA” value (“binding as % of binding” for short) in assay [2] is 62.2%. Further, in assay [3], the “binding as % of binding” value amounted to 126%. Moreover, the “binding as % of binding” value in assay [4] was found to be 93.5%. Moreover, the EC50 in assay [5] was 0.16 nM. Further, the “inhibition of CD4 T cell proliferation in MLR, IC50” value in assay [6] is 0.029 nM. In addition, in assay [7], the “inhibition of NFkB-GFP reporter, IC50” value was determined as 0.22 nM. This molecule showed a Kd in assay [8] of 7.89 nM. Besides, in assay [9], the “AntiCD3/CD28 (CD4 T cell proliferation) repeat 1” value is 23 % inhibition, the “AntiCD3/CD28 (CD4 T cell proliferation) repeat 2” value was 35 % inhibition, the “AntiCD3/CD28 (CD69+ CD4 T cells) repeat 1” value was determined as 58 % inhibition and the “AntiCD3/CD28 (CD69+ CD4 T cells) repeat 2” value was 67 % inhibition. For the same molecule, in assay [9], the “MLR (CD4 T cell proliferation) repeat 1” value was found to be 30 % inhibition and the “MLR (CD4 T cell proliferation) repeat 2” value is 36 % inhibition.

B2: 11.5.1 (antibody, V domains shown)
VH: EVQLQESGPSLVKPSQTLSLTCSVTGDSITSAYWNWIRKFPGNKLEYMGYISYSGSTYFNPSLKSRISITRNTSKNQYYLQLNSVTTEDTATYYCARSHYYGYYFDYWGHGTTLTVSS
VL: DIVLTQSPASLAVSLGQRATISCRASETIDSYGDSLMHWYQQKAGQPPKLLIYRASNLESGIPARFSGSGSRTDFTLTINPVEADDVATYYCQQTDEDPYTFGGGTKLEIK
notes: mouse IgG1k hybridoma antibody
B2: in [1], the Kd was determined as 0.995 nM, the koff was 0.000952 s⁻¹ and the kon was 957000 M⁻¹ s⁻¹. For the same molecule, the “binding as % of binding” value in [2] amounted to 73.3%. Besides, the “binding as % of binding” value in assay [3] was 81.3%. For the same molecule, in assay [4], the “binding as % of binding” value worked out at 148%. The same molecule had an EC50 in assay [5] of 0.0057 nM. Moreover, the “inhibition of CD4 T cell proliferation in MLR, IC50” value in [6] was found to be 0.016 nM. Also, the “inhibition of NFkB-GFP reporter, IC50” value in assay [7] turned out to be 0.14 nM. Further, the Kd in assay [8] was 0.99 nM. In assay [9], the “AntiCD3/CD28 (CD4 T cell proliferation) repeat 1” value was 21 % inhibition, the “AntiCD3/CD28 (CD4 T cell proliferation) repeat 2” value was determined as 28 % inhibition, the “AntiCD3/CD28 (CD69+ CD4 T cells) repeat 1” value came out at 50 % inhibition and the “AntiCD3/CD28 (CD69+ CD4 T cells) repeat 2” value was determined as 47 % inhibition. Further, in assay [9], the “MLR (CD4 T cell proliferation) repeat 1” value came out at 23 % inhibition and the “MLR (CD4 T cell proliferation) repeat 2” value turned out to be 18 % inhibition.
